Laboratory results as given in patent US20250076311A1 (Chugai, published 2025).
Positions count from the first letter of the chain named. Numbers in names are those of the source.

B1: M103205H795-MY468/M103202L889-SK1 (antibody)
chain 1: QVTLKESGPVLVKPTETLTLTCTVSGIDLSHDDISWVRQAPGKGLEWVGIISYAGSTYYASWAKGRLTISKDTSKNQVVLTMTNMDPVDTATYYCARGVPAYSHGGDLWGQGTLVTVSSASTKGPSVFPLAPSSKSTSGGTAALGCLVKDYFPEPVTVSWNSGALTSGVHTFPAVLQSSGLYSLSSVVTVPSSSLGTQTYICNVNHKPSNTKVDKKVEPKSCDKTHTCPPCPNPELLTGPSVFLFPPKPKDTLMISRTPEVTCVVVDVSDEDPEVKFNWYVDGVEVHNAKTKPREEQYNSTYRVVSVLTVLHQDWLNGKEYKCKVSNKALPKPIEKTISKAKGQPREPQVYTLPPSREEMTKNQVSLTCLVKGFYPSDIAVEWESNGQPENNYKTTPPVLDSDGSFFLYSKLTVDKSRWQQGNVFSCSVMHEALHNHYTQKSLSLSP
chain 2: DIVMTQSPATLSLSPGERATLSCTSSQSVYHANWLSWFQQKPGQPPKLLIYWASTLAYGVPSRFSGSGSGTDFTLTISSLQPEDAATYYCAGGYGGGRYAFGQGTKVEIKRTVAAPSVFIFPPSDEQLKSGTASVVCLLNNFYPREAKVQWKVDNALQSGNSQESVTEQDSKDSTYSLSSTLTLSKADYEKHKVYACEVTHQGLSSPVTKSFNRGEC
B2: M103205H795-MY452/M103202L889-SK1 (antibody, human IgG1, kappa)
heavy: B1 chain 1 with N233A, P234Q
light: B1 chain 2
notes: Substitutions in EU numbering on SG1
B3: M103205H795-MY183/M103202L889-SK1 (antibody, human IgG1, kappa, name in EU numbering)
heavy: B1 chain 1 with N233A, T238N, D270E, K332A, P398W
light: B1 chain 2
notes: EU numbering
B4: M103205H795-MY171/M103202L889-SK1 (antibody, human IgG1, kappa, name in EU numbering)
heavy: B1 chain 1 with N233A, T238N, D270E, K332A, P398F
light: B1 chain 2
notes: EU numbering
B5: M103205H795-MY176/M103202L889-SK1 (antibody, human IgG1, kappa, name in EU numbering)
heavy: B1 chain 1 with N233A, T238N, D270E, K332A, P398L
light: B1 chain 2
notes: EU numbering
B6: M103205H795-MY168/M103202L889-SK1 (antibody, human IgG1, kappa, name in EU numbering)
heavy: B1 chain 1 with N233A, T238N, D270E, K332A, P398A
light: B1 chain 2
notes: EU numbering
B7: M103205H795-MY175/M103202L889-SK1 (antibody, human IgG1, kappa, name in EU numbering)
heavy: B1 chain 1 with N233A, T238N, D270E, K332A, P398K
light: B1 chain 2
notes: EU numbering
B8: M103205H795-MY052/M103202L889-SK1 (antibody, human IgG1, kappa, name in EU numbering)
heavy: B1 chain 1 with N233A, T238N, D270E, K332A, P398M
light: B1 chain 2
notes: substitutions in EU numbering, introduced into M103205H795-SG1
B9: M103205H795-MY440/M103202L889-SK1 (antibody, human IgG1, kappa, name in EU numbering)
heavy: B1 chain 1 with N233A, L237W, T238N, Q297L
light: B1 chain 2
notes: as for B8
B10: M103205H795-MY182/M103202L889-SK1 (antibody, human IgG1, kappa, name in EU numbering)
heavy: B1 chain 1 with N233A, T238N, D270E, K332A, P398V
light: B1 chain 2
notes: EU numbering
B11: M103205H795-MY200/M103202L889-SK1 (antibody)
heavy: B1 chain 1 with N233A, T238N, S241V, D270E
light: B1 chain 2
B12: M103205H795-MY212/M103202L889-SK1 (antibody, human IgG1, kappa, name in EU numbering)
heavy: B1 chain 1 with N233A, T238N, S241V, Q297L, K328T
light: B1 chain 2
notes: as for B8
B13: M103205H795-MY434/M103202L889-SK1 (antibody, human IgG1, kappa, name in EU numbering)
heavy: B1 chain 1 with N233A, L237W, T238N
light: B1 chain 2
notes: as for B8
B14: GpH7-B3 N325L / GpL16-k0 (antibody, human IgG1, kappa)
heavy: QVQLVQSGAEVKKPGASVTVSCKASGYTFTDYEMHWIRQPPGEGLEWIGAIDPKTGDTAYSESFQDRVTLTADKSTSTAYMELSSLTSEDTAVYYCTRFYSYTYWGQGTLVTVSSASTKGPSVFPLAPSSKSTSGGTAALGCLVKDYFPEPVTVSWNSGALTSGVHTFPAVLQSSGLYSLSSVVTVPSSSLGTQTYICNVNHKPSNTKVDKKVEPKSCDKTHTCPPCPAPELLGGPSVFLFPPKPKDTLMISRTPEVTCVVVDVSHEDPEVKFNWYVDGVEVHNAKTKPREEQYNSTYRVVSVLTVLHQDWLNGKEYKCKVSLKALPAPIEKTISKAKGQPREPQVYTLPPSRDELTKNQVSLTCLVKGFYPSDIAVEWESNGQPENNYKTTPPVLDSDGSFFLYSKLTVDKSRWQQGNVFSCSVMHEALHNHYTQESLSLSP
light: DIVMTQSPLSLPVTPGEPASISCQASESLVHSNRNTYLHWYLQKPGQSPQLLIYKVSNRFSGVPDRFSGSGSGTDFTLKISRVEAEDVGVYYCSQNTHVPPTFGQGTKVEIERTVAAPSVFIFPPSDEQLKSGTASVVCLLNNFYPREAKVQWKVDNALQSGNSQESVTEQDSKDSTYSLSSTLTLSKADYEKHKVYACEVTHQGLSSPVTKSFNRGEC
notes: also called B3 variant N325L

Target: T1, cynomolgus monkey FcγRIIa3 extracellular domain with C-terminal His-tag (cynomolgus monkey)
T1 construct: also called cyno FcgRIIa3; cynoFcγRIIa3
T1 chain: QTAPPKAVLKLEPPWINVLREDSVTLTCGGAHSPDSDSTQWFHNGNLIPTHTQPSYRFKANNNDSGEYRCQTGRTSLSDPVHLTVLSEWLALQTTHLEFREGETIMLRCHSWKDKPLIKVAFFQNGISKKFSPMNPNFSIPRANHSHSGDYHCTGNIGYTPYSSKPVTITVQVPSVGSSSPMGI
Test: SPR (Biacore), KD of SG1 / KD of variant
Description: The kinetic analysis of interactions between these antibodies and FcγR was carried out using BIACORE® T200 or BIACORE® 4000 (GE Healthcare). HBS-EP+ (GE Healthcare) was used as the running buffer, and the measurement temperature was set to 25° C. […] After the measurement, the antibody captured on the chip was washed off by allowing reaction with 10 mM glycine-HCl, pH1.5 and 25 mM NaOH so that the chip was regenerated and used repeatedly. The sensorgrams obtained as measurement results were analyzed by the 1:1 Langmuir binding model using the BIACORE® Evaluation Software to calculate the binding rate constant ka (L/mol/s) and dissociation rate constant kd (1/s), and the dissociation constant KD (mol/L) was calculated from these values. […] Regarding such interactions, KD values were calculated using the following 1:1 binding model described in BIACORE® T100 Software Handbook BR1006-48 Edition AE.

Binder	KD fold (SG1 = 1) [fold]
B1	3.5
B2	2.6

Target: T2, cynomolgus monkey FcγRIIa2 extracellular domain with C-terminal His-tag (cynomolgus monkey)
T2 construct: also called cyno FcgRIIa2; cynoFcγRIIa2; not shown: His-tag added to C-terminus
T2 chain: T1 chain with I127K, K130N, P133H, R142Q
Test: SPR Biacore, antibody captured, FcgR analyte

Binder	KD fold (SG1 = 1) [fold]	Kd [nM]
B3	2.6	
B4		2300

Target: T3, cynomolgus monkey FcγRIIa3 extracellular domain with C-terminal His-tag (cynomolgus monkey)
T3 construct: also called cyno FcgRIIa3; cynoFcγRIIa3; not shown: His-tag added to C-terminus
T3 chain: T1 chain
Test: SPR Biacore, antibody captured, FcgR analyte

Binder	Kd [nM]	KD fold (SG1 = 1) [fold]
B5	6000	
B6	1000	
B4	9200	1.5
B7		2.3

Target: T4, cynomolgus monkey FcγRIIb extracellular domain with C-terminal His-tag (cynomolgus monkey)
T4 construct: also called cyno FcgRIIb; cynoFcγRIIb; not shown: His-tag added to C-terminus
T4 chain: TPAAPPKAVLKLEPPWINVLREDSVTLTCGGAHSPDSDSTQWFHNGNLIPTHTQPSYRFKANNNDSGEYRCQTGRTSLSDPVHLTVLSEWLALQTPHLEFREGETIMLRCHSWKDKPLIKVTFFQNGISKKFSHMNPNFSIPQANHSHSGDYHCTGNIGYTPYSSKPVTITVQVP
Test: SPR Biacore, antibody captured, FcgR analyte

Binder	KD fold (SG1 = 1) [fold]	Kd [nM]
B8	3.5	
B5	1	
B6		12
B9	3.9	
B4	1.5	9800

target: T5, cynomolgus monkey FcγRIIIaS extracellular domain with C-terminal His-tag (cynomolgus monkey, UniProt A3RFZ7 21-206 (rhesus entry)); test: SPR Biacore, antibody captured, FcgR analyte
T5 construct: also called cyno FcgRIIIaS; cynoFcγRIIIaS; not shown: His-tag added to C-terminus

Binder	KD fold (SG1 = 1) [fold]	Kd [nM]
B8	0.24	1500
B5	0.16	2200
B10	0.1	3600
B11	0.08	
B3	0.1	3500
B12	0.14	
B6	0.08	4500
B9	0.04	
B4	0.11	3300
B13	0.03	
B7	0.14	2600

Target: T6, human FcγRIIaR extracellular domain with C-terminal His-tag (human, UniProt P12318 34-217)
T6 construct: also called human FcgRIIaR; FcγRIIa (type R); not shown: His-tag added to C-terminus
T6 chain: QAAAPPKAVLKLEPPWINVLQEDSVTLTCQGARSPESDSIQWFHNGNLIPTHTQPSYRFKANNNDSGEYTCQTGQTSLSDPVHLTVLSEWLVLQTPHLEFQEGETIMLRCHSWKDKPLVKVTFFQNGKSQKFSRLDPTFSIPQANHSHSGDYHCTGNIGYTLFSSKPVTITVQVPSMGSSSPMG
Test: SPR Biacore, antibody captured, FcgR analyte

Binder	KD fold (SG1 = 1) [fold]	Kd [nM]
B8	0.1	
B5	0.1	
B6		2800
B4		2300
B13	0.8	
B7		1500

target: T7, human FcγRIIb extracellular domain with C-terminal His-tag (human, UniProt P31994 43-217); test: SPR Biacore, antibody captured, FcgR analyte
T7 construct: also called human FcgRIIb; not shown: His-tag added to C-terminus
T7 sequence: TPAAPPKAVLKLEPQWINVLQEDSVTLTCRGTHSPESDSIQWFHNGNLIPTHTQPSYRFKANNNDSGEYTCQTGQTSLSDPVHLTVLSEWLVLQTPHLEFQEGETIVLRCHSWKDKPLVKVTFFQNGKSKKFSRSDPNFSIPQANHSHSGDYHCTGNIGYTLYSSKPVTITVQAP

Binder	KD fold (SG1 = 1) [fold]	Kd [nM]
B5	6.5	700
B3	4.7	
B12	7.5	
B4		1200
B13	3.5	

target: T8, human FcγRIIIaV extracellular domain with C-terminal His-tag (human, UniProt P08637 17-208); test: SPR Biacore, antibody captured, FcgR analyte
T8 construct: also called human FcgRIIIaV; not shown: His-tag added to C-terminus
T8 sequence (P08637 17-208 F176V): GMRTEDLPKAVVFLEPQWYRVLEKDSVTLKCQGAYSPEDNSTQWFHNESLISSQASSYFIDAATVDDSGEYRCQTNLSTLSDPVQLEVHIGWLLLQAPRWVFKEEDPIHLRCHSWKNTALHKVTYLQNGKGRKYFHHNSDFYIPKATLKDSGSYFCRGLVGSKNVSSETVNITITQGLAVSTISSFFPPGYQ

Binder	Kd [nM]	KD fold (SG1 = 1) [fold]
B5	6200	
B10		0.17
B11		0.09
B3	7700	
B12		0.17
B9		0.03

target: T9, human FcγRIIaH extracellular domain, His-tagged (human, UniProt P12318 34-217); test: SPR (Biacore), 25C, FcgR bound per antibody captured
T9 construct: also called human FcgRIIaH; FcγRIIa type H
T9 sequence: T6 chain with R134H

Binder	Binding to human FcgRs (parent B3 = 100)
B14	93

Target: T10, human FcγRIIaR extracellular domain, His-tagged (human, UniProt P12318 34-217)
T10 construct: also called human FcgRIIaR; FcγRIIa type R
T10 chain: T6 chain
Test: as above

Binder	Binding to human FcgRs (parent B3 = 100)
B14	13

target: T11, human FcγRIIIaV extracellular domain, His-tagged (human, UniProt P08637 17-208); test: as above
T11 construct: also called human FcgRIIIaV
T11 sequence (P08637 17-208 F176V): as above

Binder	Binding to human FcgRs (parent B3 = 100)
B14	0
